# Measurements from patent US20210246195A1 (CZ BIOHUB SF, published 2021).
# Residue numbers refer to the chain shown, from its start.
# T1: Ara h 1 (purified natural peanut allergen) (Arachis hypogaea, UniProt P43238 26-626)
# T1 construct: mature; bought natural protein; also called natural Ara h 1; NA-AH1-1
# T1 sequence (looked up): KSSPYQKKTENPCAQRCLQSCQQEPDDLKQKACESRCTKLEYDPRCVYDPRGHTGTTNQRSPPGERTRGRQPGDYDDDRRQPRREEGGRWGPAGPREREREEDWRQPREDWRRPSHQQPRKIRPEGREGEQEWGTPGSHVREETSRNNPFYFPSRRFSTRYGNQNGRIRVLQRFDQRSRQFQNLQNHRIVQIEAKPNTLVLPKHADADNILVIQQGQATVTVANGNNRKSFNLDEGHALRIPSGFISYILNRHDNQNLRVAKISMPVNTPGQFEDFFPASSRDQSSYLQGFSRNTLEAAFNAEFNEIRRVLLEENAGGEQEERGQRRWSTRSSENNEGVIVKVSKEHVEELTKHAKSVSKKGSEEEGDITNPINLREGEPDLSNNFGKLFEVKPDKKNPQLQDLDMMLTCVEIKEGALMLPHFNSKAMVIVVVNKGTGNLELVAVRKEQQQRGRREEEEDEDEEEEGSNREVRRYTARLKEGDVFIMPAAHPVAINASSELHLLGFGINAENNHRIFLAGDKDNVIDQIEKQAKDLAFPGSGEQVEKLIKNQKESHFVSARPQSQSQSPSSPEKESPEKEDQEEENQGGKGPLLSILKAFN
# T2: purified recombinant allergen Aspergillus fumigatus 1 (rAsp f 1) (Aspergillus fumigatus, UniProt P67875 28-176)
# T2 sequence: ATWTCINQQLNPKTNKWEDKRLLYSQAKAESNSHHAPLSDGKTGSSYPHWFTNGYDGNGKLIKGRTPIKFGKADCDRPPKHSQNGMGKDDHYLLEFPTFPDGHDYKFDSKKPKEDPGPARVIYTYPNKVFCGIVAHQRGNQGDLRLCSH
# B1: PA13P1H08 variant rCDR1-N (antibody, human IgG1, V domains shown)
# VH: QVQLVNSGGGVVQPGRSLRLSCVASGFTFSSYGIHWVRQAPGKGLEWVAVISNDGEKSESADSVKGRFTPSRDNSKNTVYLQMNNLRVEDTAVYYCAKVLDYSRYSYYYGMDVWGQGTTVIVSS
# VL: EIVLTQSPGTLSLSPGGRGTLSCRTSQTINNAHLAWYQHKPGQAPRLLIYGSSERATGVPDRFSGSGSGSDFTLTISSLEAEDFAVYYCQHYGRSPPYTFGPGTKLDIK
# notes: human IgG1, kappa; also called heavy chain CDR1 reverted
# B2: PA13P1H08 variant rCDR2-N (antibody, human IgG1, V domains shown)
# VH: B1 VH with S31T, Y32F, N53Y, E56S, K57N, S58K
# VL: B1 VL
# notes: human IgG1, kappa; also called heavy chain CDR2 reverted
# B3: PA13P1H08 variant rCDR3-N (antibody, human IgG1, V domains shown)
# VH: B1 VH with S31T, Y32F, R104N, S106Y
# VL: B1 VL
# notes: human IgG1, kappa; also called heavy chain CDR3 reverted
# B4: PA13P3G09 (antibody, human IgG1, V domains shown)
# VH: QEQLVESGGGVVHPGGSLRLSCVASAFTFNRFGMHWVRQAPGKGLEWVAVISNDGRSQDYADSVKGRFIISRDNSKNTLYLQLNSLRFEDTAVYYCAKVLDYSIFYYYFGLDVWGQGTTVTVSS
# VL: EVVLTQSPGSLSLSPGERATLSCRAGQSLSSKFLAWYQHKPGQAPRLLIYGASTRATGVPDRFSGSGSGTDFSLIISRVEPEDFAVYYCQHYGDSPPYTFGQGTKVEMK
# notes: human IgG1, kappa
# B5: PA12P3D08 (antibody, human IgG1, V domains shown)
# VH: QVQLVESGGGVVQPGKSLRLSCAASAFTFRRFAMHWVRQAPGKGLEWVAVISDNGLREDYEDSVKGRFTISRDNSQNTLYLQMNGLRAEDTAVYYCAKVLDYNEYSLYFGMDVWGQGTTVTVSS
# VL: EVVLTQSPATLSLSPGERATLSCRTSQAISNNFLAWYQQRPGQPPRLLIYASSRRATDTPDRFTGSGSGTDFTLTITRLEPEDFAVYFCQYYSDSPPYTFGPGTKLEIK
# notes: human IgG1, kappa
# B6: PA12P1C07 (antibody, human IgG1, V domains shown)
# VH: B5 VH with V5E, A23V, R30K, Q76K, N77D, G85S, A88P, V93I, N103S, T121L
# VL: EIVLTQSPAILSLSPGDRATLSCRTSQTVNSNFLAWYQQKPGQAPRLLIYGASRRAIDIPDRFTGSGSGTEFTLTIARLEPEDFAVYSCQHYSDSPPYTFGQGTKLEIK
# notes: human IgG1, kappa
# B7: PA13P1E10 (antibody, human IgG1, V domains shown)
# VH: QVQLVDSGGGVVQPGKSLRLSCVGSGFTFRTFGIHWVRQAPGKGLEWVAVISNDGGNSASADSVKGRFTTSRDNSKNTVYLQINSLRPEDTAIYYCAKVLDYSAFSYYYGMDVWGQGTTVIVSS
# VL: EIVLTQSPGTLSLSPGERGTLSCRTSQPISRAHLAWYQHKAGQAPRLLIYGSTERAAGIPERFSGGGSGSDFTLTISSLEAEDFAVYYCQHYGRSPPYTFGQGTKVEIK
# notes: human IgG1, kappa
# B8: PA12P3F10 (antibody, human IgG1, V domains shown)
# VH: QVQLVESGGGVVQPGGSLTLSCVGSGFTFSHYAIHWVRQAPGKGLEWVAVISNVGTTRDYADSLKGRLTISRENSQSTVFLQMNSLRADDTAIYYCAKVLDYSEFHYYYGLDVWGQGTAVAVSS
# VL: EIVLTQSPGTLSLSPGQRVTLSCRVSQAIPTMYVAWYQQRPGQAPRLLIYGTSSRATGIPDRFSGGGSGTDFTLTINRLEPEDIAVYYCQHYSNSPPYTFGPGTKLEIK
# notes: human IgG1, kappa
# B9: PA13P1H08 variant R-N (antibody, human IgG1, V domains shown)
# VH: QVQLVESGGGVVQPGRSLRLSCAASGFTFSSYGMHWVRQAPGKGLEWVAVISYDGSNKYYADSVKGRFTISRDNSKNTLYLQMNSLRAEDTAVYYCAKVLDYSNYYYYYGMDVWGQGTTVTVSS
# VL: B1 VL
# notes: human IgG1, kappa; also called reverted heavy chain, native light chain
# B10: PA13P1H08 variant with native heavy chain and light chain swapped with another kappa light chain (antibody, human IgG1, V domains shown)
# VH: B1 VH with S31T, Y32F
# VL: EIVLTQSPATLSLSPGERATLSCRASQSVSSYLAWYQQKPGQAPRLLIYDASNRATGIPARFSGSGSGTDFTLTISSLEPEDFAVYYCQQRSNWPPGFTFGPGTKVDIK
# notes: human IgG1, kappa
# B11: PA13P1H08 variant rFWRs-N (antibody, human IgG1, V domains shown)
# VH: B9 VH with S31T, Y32F, Y53N, S56E, N57K, K58S, N104R, Y106S
# VL: B1 VL
# notes: human IgG1, kappa; also called heavy chain framework regions reverted
# B12: 1003320105_D6 (antibody, V domains shown)
# VH: EVQLLESGGGLVQPGGSLRLSCAASGFNFSNFAVSWVRQTPGKGLEWVSAILGSRSVTYYADSVKGRFTISRDKSKNALYLQMDSLRAEDTAIYYCAKLFFMPYSHDDSGDYWGQGTLVAVSS
# VL: QLVLTQSPSASASLGASVKLTCTLSSDHRSYAIAWHQQQPGKGPRYLMKVNRDGSHIKGDGIPHRFSGSSSVTERYLIISSLQSEDEADYYCQSWDTGIQVFGGGTRLTVV
# notes: also called Clone 1003320105_D6
# B13: 1003320107_F8 (antibody, V domains shown)
# VH: EVQLVESGGGLVQPGGSLKLSCAASGFTFSGSTIHWVRQTSGKGLEWVGRIGSKATSYATAYAASVKGRFTISRDDSKNTAYLQMNSLKTEDTAVYFCTRRYYDTTKSVLVVSDSWGQGTLVTVSS
# VL: SYELTQPPSMSVSPGQTARITCSGDVLAKQFAYWYQQKPGQAPVLVIYKDSERPSGIPERFSGSSSGTIITLTISGVQAEDEADYYCQSADSSGTSWVFGGGTKLTVL
# notes: also called Clone 1003320107_F8
# B14: 1003320101_D6 (antibody, V domains shown)
# VH: EVQLVASGGGLIHPGGSLRLSCEASGFSFSRFWMYWVRQSPGEGLVWVARLSGDGTVTNYADSMEGRVTISRDNVKNTLFLEMNSLREGDTGIYYCARKDCPSLSCQLDYWGQGVQVTVSS
# VL: QSVLTQPPSVSAAPGQKVTISCSGSTSNIGKNYVSWYQHFPGAAPKLLIFDNDKRPSGIPDRFSGSRSGTSATLDITGLQTGDEADYFCATWDSRLSADVFGSGTTVSVL
# notes: also called Clone 1003320101_D6
# B15: PA12P1D02 (antibody, human IgG1, V domains shown)
# VH: QLQLQQWGAGLVKPSETLSLTCTVSGGSLSGHFWSWIRQSPEKGLEWIGEINHSGRKNYNPSLMIRVDISIDTSKNQFSMRMTSLTAADSAVYYCARVGRNIVDTDDAFDVWGRGTLVTVSS
# VL: EIVLTQSPGTLSLSPGDTVTLSCRASQTIDSIYLAWYQQRPGQAPRLLIYGASTRATGTPDRFSGGGSGTDFTLTITRLEPEDFAVYFCQQYGTSPPITFGRGTRLEIK
# notes: human IgG1
# B16: PA12P1G11 (antibody, human IgG1, V domains shown)
# VH: QVQLVQSGAEVRKPGSSVKVSCKASGGTFSNNPITWVRQAPGQGLEWMGWIIPIFNTTNYAQKFQGRVTITADESTSTAYMELSSLKSEDTALFYCARDRAHAYCNNGVCYTTDAFDVWGQGTLVTVSS
# VL: ETVLTQSPATLSLSPGERATLSCRASQSVGRYLAWYQHKPGQAPRLLIYDASNRATGIPARFSGSGSGTDFTLTISSLEPEDSAVYYCQQGTDWLTFGGGTKVEIK
# notes: human IgG1
# B17: PA13P1H03 (antibody, human IgG1, V domains shown)
# VH: EVQLVESGGGLVQPGGSLRLSCAASGFTFRNYWMNWVRQAPGKGLVWVSRINSEGSSTSYADPVKGRFTISRDNAKDTLYLQMDSLRAEDSAVYYCARIFNGYIHVGRDYWGQGTRVTVSS
# VL: DIQMTQSPSTLSASIGDRVTITCRASESISNWLAWFQQKPGKAPKLLIYKASNLESGVPSRFSGSGSGTEFTLTISSLQPDDFATYYCQQYNSNSQTFGQGTKLDLK
# notes: human IgG1
# Target: T3, Ara h 3 (purified natural peanut allergen) (Arachis hypogaea)
# T3 construct: mature; bought natural protein; also called natural Ara h 3; NA-AH3-1
# T3 sequence (main, as listed by the source): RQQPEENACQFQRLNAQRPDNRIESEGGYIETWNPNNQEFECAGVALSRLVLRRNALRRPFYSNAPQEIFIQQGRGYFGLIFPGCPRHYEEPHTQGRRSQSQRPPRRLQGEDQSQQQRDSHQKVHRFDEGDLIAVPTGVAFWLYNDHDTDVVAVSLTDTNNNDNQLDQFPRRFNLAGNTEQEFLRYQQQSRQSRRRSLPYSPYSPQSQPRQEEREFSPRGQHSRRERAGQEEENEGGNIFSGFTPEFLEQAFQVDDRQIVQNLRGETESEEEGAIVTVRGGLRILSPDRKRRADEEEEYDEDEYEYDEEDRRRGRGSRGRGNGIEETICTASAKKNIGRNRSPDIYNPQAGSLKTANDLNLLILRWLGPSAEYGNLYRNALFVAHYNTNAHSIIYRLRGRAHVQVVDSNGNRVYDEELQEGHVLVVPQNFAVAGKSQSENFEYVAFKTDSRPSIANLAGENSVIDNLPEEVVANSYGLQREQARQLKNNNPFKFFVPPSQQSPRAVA
# Assay: BLI, antibody on anti-human IgG Fc sensors, Ara h 3 as analyte, top 16 nM
row,Binder,Kd
1,B1,0.5 nM
2,B2,0.0042 nM
3,B3,0.29 nM

# Target: T4, BSA (UniProt P02769 25-607)
# T4 construct: also called bovine serum albumin; immobilized BSA
# T4 sequence (P02769 25-607 limits assumed): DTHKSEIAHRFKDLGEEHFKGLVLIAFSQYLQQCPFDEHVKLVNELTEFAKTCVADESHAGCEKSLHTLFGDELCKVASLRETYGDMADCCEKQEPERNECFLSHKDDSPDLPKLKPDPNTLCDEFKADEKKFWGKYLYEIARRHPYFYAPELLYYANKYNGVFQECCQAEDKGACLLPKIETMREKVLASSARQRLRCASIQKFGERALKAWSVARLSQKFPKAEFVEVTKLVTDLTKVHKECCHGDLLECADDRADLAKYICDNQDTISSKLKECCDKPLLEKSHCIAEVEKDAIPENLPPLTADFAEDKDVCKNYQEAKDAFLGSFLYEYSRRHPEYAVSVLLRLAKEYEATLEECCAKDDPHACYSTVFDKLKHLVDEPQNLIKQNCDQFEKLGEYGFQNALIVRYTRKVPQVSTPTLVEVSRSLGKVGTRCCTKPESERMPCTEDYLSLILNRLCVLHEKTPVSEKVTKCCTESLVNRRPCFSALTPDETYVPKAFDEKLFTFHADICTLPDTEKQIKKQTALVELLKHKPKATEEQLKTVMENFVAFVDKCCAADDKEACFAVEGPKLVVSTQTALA
# Assay: indirect ELISA, OD heat map
row,Binder,binding result
1,B4,no binding (tested: 2 ng/µL)
2,B5,no binding (tested: 2 ng/µL)
3,B6,no binding (tested: 2 ng/µL)
4,B7,no binding (tested: 2 ng/µL)
5,B8,no binding (tested: 2 ng/µL)
6,B1,no binding (tested: 2 ng/µL)
7,B9,no binding (tested: 2 ng/µL)
8,B10,no binding (tested: 2 ng/µL)
9,B2,no binding (tested: 2 ng/µL)
10,B3,no binding (tested: 2 ng/µL)
11,B11,no binding (tested: 2 ng/µL)

# Target: T1, Ara h 1 (purified natural peanut …)
# Assay: indirect ELISA, OD heat map
row,Binder,binding result
1,B10,no binding (tested: 2 ng/µL)

# Target: T4, BSA
# Assay: indirect ELISA, OD heat map
# Remark: another data set of the same source
row,Binder,binding result
1,B12,no binding (tested: 2 ng/µL)
2,B13,no binding (tested: 2 ng/µL)
3,B14,no binding (tested: 2 ng/µL)

# Target: T2, purified recombinant allergen …
# Assay: indirect ELISA, OD heat map
row,Binder,binding result
1,B12,no binding (tested: 2 ng/µL)
2,B13,no binding (tested: 2 ng/µL)
3,B14,no binding (tested: 2 ng/µL)

# Target: T3, Ara h 3 (purified natural peanut …)
# Assay: BLI, antibody on anti-human IgG Fc sensors, Ara h 3 as analyte, top 32 nM
row,Binder,Kd
1,B4,19 nM
2,B5,22 nM
3,B6,11 nM
4,B7,5 nM
5,B8,11 nM

# Target: T4, BSA
# Assay: indirect ELISA heat map, hIgG subtracted
row,Binder,binding result
1,B15,no binding (tested: 2 ng/µL)
2,B16,no binding (tested: 2 ng/µL)
3,B17,no binding (tested: 2 ng/µL)

# Target: T3, Ara h 3 (purified natural peanut …)
# Assay: BLI, antibody on anti-human IgG Fc sensors, Ara h 3 as analyte, top 32 nM
# Remark: another data set of the same source
row,Binder,Kd
1,B9,0.89 nM
2,B11,3.2 nM
